The values below come from patent publication US20030049796A1.

The test deals with Recombinant active caspase-9 (catalytic domain) (mammalian) (UniProt P55211). Nature of the test: cell-based or functional assay.
Sequence of UniProt P55211 (P55211 139-416 limits assumed): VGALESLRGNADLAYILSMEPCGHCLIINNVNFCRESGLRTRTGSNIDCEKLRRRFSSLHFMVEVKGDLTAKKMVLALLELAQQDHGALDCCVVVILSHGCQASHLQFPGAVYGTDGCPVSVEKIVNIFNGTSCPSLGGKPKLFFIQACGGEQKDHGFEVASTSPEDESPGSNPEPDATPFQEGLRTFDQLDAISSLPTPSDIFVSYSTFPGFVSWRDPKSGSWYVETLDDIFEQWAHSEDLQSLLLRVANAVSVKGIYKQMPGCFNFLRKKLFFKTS

With “GST-BmIAP (recombinant purified Bombyx mori inhibitor of apoptosis protein, glutathione S-transferase fusion)”, the caspase-9 activity: AFC release from Ac-LEHD-AFC (100 uM); 0.2 uM caspase-9, 0.2-1.6 uM BmIAP, 37 C (fold molar excess) was 8.
